The source of these data is patent US20210340238A1, “TGFß1 INHIBITORS AND USE THEREOF” (Scholar Rock, Inc., priority 2018, published 2021).

Series [1] concerns TGFβ downstream tonic signaling. The series is described as follows: TGFβ downstream tonic signaling in non-diseased rat BAL. Format: in vivo.
For series [2] the following is noted: rat, in vivo.
Description: Animals receiving pan-TGFβ antibody were dosed once intravenously (at day 1) at a volume of 10 mL/kg and sacrificed at day 8 and necropsies performed. […] Animals receiving LY2109761 were dosed by oral gavage once daily for five or seven days. Animals were sacrificed and necropsies performed.
The conditions of series [3]: in vivo, cited from earlier work.

Regarding `c1ccc(-c2nn3c(c2-c2ccnc4cc(OCCN5CCOCC5)ccc24)CCC3)nc1` [LY2109761], the “Effect on TGFβ downstream tonic signaling” value in series [1] is reported as “inhibit TGFβ downstream tonic signaling in non-diseased rat BAL”. The Bone findings result in series [2] was “macroscopic abnormally shaped sternum and microscopic increased thickness of the hypertrophic zone in the endplate of the sternum and physis of the femur and tibia”.

“GC1008: human analog of 1D11, pan-TGFβ antibody Fresolimumab (GC1008)”: in series [3] (human), the “Exposure: DN Cmax” value is “DN Cmax~(350 ng/mL)mg (ng/mL)mg” and the “Exposure: Half-life” value was “Half-life: 21.7 d”. Moreover, the “Previously reported adverse events in human patients (CTCAE grade)” value in series [3] is “leukocytosis (grade 3), fatigue (grade 3), hypoxia (grade 3), asystole (grade 5), leukopenia (grade 1), recurrent, transient, tender erythematous, nodular skin lesions, suppurative dermatitis, and herpes zoster”.
